Laboratory results as given in US20050251885A1, “Method for enhancing yield of recombinant protein production from plants” (UNIVERSITE LAVAL, priority 2002, published 2005).

B1: α-1 antichymotrypsin: human serpin, inhibitor of chymotrypsin-like proteases (protein, UniProt P01011 24-423, looked up)
Alpha-1-antichymotrypsin: HPNSPLDEENLTQENQDRGTHVDLGLASANVDFAFSLYKQLVLKAPDKNVIFSPLSISTALAFLSLGAHNTTLTEILKGLKFNLTETSEAEIHQSFQHLLRTLNQSSDELQLSMGNAMFVKEQLSLLDRFTEDAKRLYGSEAFATDFQDSAAAKKLINDYVKNGTRGKITDLIKDLDSQTMMVLVNYIFFKAKWEMPFDPQDTHQSRFYLSKKKWVMVPMMSLHHLTIPYFRDEELSCTVVELKYTGNASALFILPDQDKMEEVEAMLLPETLKRWRDSLEFREIGELYLPKFSISRDYNLNDILLQLGIEEAFTSKADLSGITGARNLAVSQVVHKAVLDVFEEGTEASAATAVKITLLSALVETRTIVRFNRPFLMIIVPTDTQNIFFMSKVTNPKQA

Test system: alfalfa leaf proteases (fraction #8)
Experiment: Fibronectin proteolysis by alfalfa leaf Mono-Q fraction #8 with protease inhibitors, immunodetection
Format: biochemical, alfalfa (cultivar Saranac)
Details: for proteolysis of fibronectin by the Mono-Q fraction in presence of inhibitor: 5 μl fraction #8, 350 ng fibronectin, 37° C., 15 min, FIG. 5B
Procedure: Firstly, a protein extract from alfalfa leaves was separated by chromatography to isolate a specific fraction containing the greatest protease activity. Alfalfa (cultivar Saranac) leaves were extracted by grinding in liquid nitrogen and resolubilization in 50 mM Tris-HCl, pH 6,8, containing 10 mM β-mercaptoethanol. The crude extract was centrifuged for 15 min at 10000 g at 4° C., and the supernatant was filtered through a 0.3 μm pore size filter. Fifteen mg of leaf proteins were then loaded on of a Mono-Q FPLC column (Pharmacia) equilibrated with extraction buffer. Proteins were eluted with a linear gradient of KCl (0 to 0.7 M) in extraction buffer, at a flow rate of 2 ml/min. Fractions of 500 μl were collected, and sample of each fraction was loaded onto a gelatin/PAGE gel (FIG. 5A). Fraction #8, which caused the highest proteolysis of gelatin in gel, was use to assess the protective effect of α-1 antichyinotrypsin.
Secondly, the identified fraction #8 was used in conjunction with various protease inhibitors to identify potential candidates for the inhibition of fibronectin proteolysis. In the experiment illustrated in FIG. 5B, 5 μl of fraction #8 was mixed with 350 ng of fibronectin and incubated at 37° C. for 15 min, in the presence of 2 μl H2O (lane 2), 2 μl of 10 mM chymostatin (lane 3) or 2 μl α-1 antichymotrypsin (lane 4). The control (lane 1) contained 5 μl extraction of buffer instead of alfalfa proteases. The reaction was stopped after 15 min. and fibronectin was immunodetected as in FIG. 1C. […] Note that both protein (α-1 antichymotrypsin) and chemical (chymostatin) molecules were efficient to decrease degradation of fibronectin.

Molecule	proteolysis of fibronectin by the Mono-Q fraction in presence of inhibitor	stability of fibronectin on inhibiting alfalfa proteases (FIG. 5)
CC(C)C[C@H](NC(=O)[C@@H](NC(=O)N[C@@H](Cc1ccccc1)C(=O)O)[C@@H]1CCN=C(N)N1)C(=O)N[C@H](C=O)Cc1ccccc1 [chymostatin, reference compound]	prevented	–
B1	prevented	significantly increased
